# Data reported in PMC6438714.
# Biological target: DyLight488-METTL14 (UniProt Q9HCE5)
# Experiment: MST
# UniProt Q9HCE5, sequence (Q9HCE5 whole entry): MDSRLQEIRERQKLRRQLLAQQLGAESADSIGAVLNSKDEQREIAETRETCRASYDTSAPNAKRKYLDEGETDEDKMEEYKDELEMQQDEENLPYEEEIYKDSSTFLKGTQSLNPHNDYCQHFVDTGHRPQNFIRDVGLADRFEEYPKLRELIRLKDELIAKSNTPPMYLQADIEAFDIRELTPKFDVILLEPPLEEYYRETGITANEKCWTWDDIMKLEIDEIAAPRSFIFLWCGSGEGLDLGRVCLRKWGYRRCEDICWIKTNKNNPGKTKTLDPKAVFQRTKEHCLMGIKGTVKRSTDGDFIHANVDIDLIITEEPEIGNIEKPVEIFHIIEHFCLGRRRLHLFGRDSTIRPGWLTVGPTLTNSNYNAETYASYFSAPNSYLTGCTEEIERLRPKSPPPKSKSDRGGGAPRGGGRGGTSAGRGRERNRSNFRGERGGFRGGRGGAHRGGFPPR
substance,measurement,value
full length H3K36me3 (from UniProt P68431 1-136) (natural protein),Kd,1860 nM
